Reference: the supplement of paper PMC10266784

B1: library; numbered along this chain (parent)
chain: MAAAAAAAAEQQSSNGPVKKSMREKAVERRSVNKEHNSNFKAGYIPIDEDRLHKTGLRGRKGNLAICVIILLFILAVINLIITLVIWAVIRIGPNGCDSMEFHESGLLRFKQVSDMGVIHPLYKSTVGGRRNENLVITGNNQPIVFQQGTTKLSVENNKTSITSDIGMQFFDPRTQNILFSTDYETHEFHLPSGVKSLNVQKASTERITSNATSDLNIKVDGRAIVRGNEGVFIMGKTIEFHMGGNMELKAENSIILNGSVMVSTTRLPSSSSGDQLGSGDWVRYKLCMCADGTLFKVQVTSQNMGCQISDNPCGNTH

Variants of: B1
Experiment: SGCB cell-surface expression functional score (HA stain, bin4 vs bin1, normalised to synonymous) (log10 ratio); higher = more cell-surface SGCB (functional)
In short: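 Codon-saturation libraries of HA-tagged, YFP-fused human beta-sarcoglycan were lentivirally transduced at MOI <0.1 into HEK293 cells stably expressing alpha-, gamma- and delta-sarcoglycan. YFP-positive cells were sorted after 72 hours, grown 5–7 days, stained on ice with Alexa Fluor 647 anti-HA, fixed, sorted into four 5% intensity bins and amplicon-sequenced. The functional score is the log ratio of highest-bin to lowest-bin variant frequency, taken as the median over codons and duplicate transductions. Synonymous variants were scaled per section to mean 0, SD 0.5.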

SGCB cell-surface expression functional score (log10) of substitutions, site by site:
D183: Y -0.53, G -1.31, T -0.79, Q -0.56, K -0.36, E 0.35, P -1.43, F -1.63, L -0.71, H -0.33, W 0.54, S -0.22, C -1.17, I -1.89, A 1.15, R -0.21, V -0.86, N -0.15, M -0.83
T175: D -0.47, I -0.13, G 0.14, E -0.42, F 0.17, W 1.12, S -0.04, R 0.24, H 0.32, Y 0.07, K -0.54, C -0.43, P -1.3, L 0.08, Q 1.26, A 0.26, N -0.16, M -0.5, V -0.16
N177: Y 0.11, W -0.44, M -0.24, Q 1.3, S 0.02, G 0.05, A 0.49, R 0.42, F -0.18, T 0.39, E 0.19, H 0.09, C 0.09, I 0.12, V 0.4, D 0.12, P -1.5, L 0.29, K -0.45
E185: W -0.87, M -1.36, Q -0.17, K -0.01, V -0.42, A 0.2, C 0.41, N -0.3, Y 0.02, T -1.1, P 0.33, L -0.11, H -1.02, D 0.34, R -0.63, F -0.44, I -0.23, S 0.53, G -0.26
Q176: D 0.07, I -0.61, L -0.17, Y -0.78, E 0.27, S -0.24, V -0.31, R 0.16, H -0.38, N 0.38, P -0.31, F -0.66, G 0.46, K -0.32, T -0.34, W -0.21, M -0.21, A 0.1, C 1.06
L179: G -0.53, M -1.01, D -1.87, T -1.12, N -1.22, P -0.55, E -1.07, I -0.73, S -1.32, V -0.27, R 0.67, Q -0.03, F 0.08, H -1.99, W 1.37, Y -0.54, A 0.06, K 0.28
T186: G -0.44, C -0.92, L -0.15, E 0.13, M -1.55, D 0.53, R 0.06, P -1.73, H 0.62, V -0.85, W -1.12, A 0.54, Y 0.08, N -0.55, S -0.18, Q 0.7, I 0.3, K 0.28, F -0.05
E188: L -1.16, S -0.61, P -0.15, T -0.38, R -0.8, M -2.13, D -0.04, F -1.65, K -0.62, V -0.11, Y -1.16, H -0.17, C -1.07, N -0.55, G -0.55, A -1.13, I -1.93, Q 0.29, W -0.68
H190: K 0.07, I -0.36, E -0.09, A -0.38, F 0.15, G 0.07, C -0.62, D -0.59
F180: C -1.87, V -2.01, Q -1.66, M -1.82, Y -1.77, T -1.29, A -2.1, P -1.31, S -1.41, R -1.76, G -1.85, N -2.28, I -1.72, L -0.42, D -1.86, K -1.78, E -1.03, H -2.25
F189: S -1.1, G -1.93, P -0.39, Y -0.98, H -1.03, L -0.46, V -1.22, A -0.91, C -1.67, D -1.52, M -0.25, N -2.42, T -1.23, R -2.1, Q -1.04, W -1.38, E -1.49, I -1.15, K -2.58
R174: H -0.58, Y -0.17, A 0.02, Q -1.07, V -0.32, N -1.48, M 0.09, T 0.3, W -0.75, F -0.97, C -0.43, D -0.81, E -0.22, K 0.08, P -0.77, I -0.15, S -0.45, L 0.05, G -0.63
D172: R -0.58, W -0.88, T 0.25, Y -0.12, S 0.68, V 0.26
Y184: D -0.8, T -1.17, H -0.69, M -1.01, S -1.04, A -0.95, L -1.63, G -1.39, V -2.52, N -1.22, Q -0.78, I -1.85, R -1.19, C -0.8, P -0.93, E -0.73, K -1.77, F 0.26
S181: W -1.97, N -1, I -1.25, R -0.87, A 0.2, D -0.41, C -0.89, F -1.53, P -1.69, G -0.94, L -1.37, M 0.13, E -1.4, Q -1.57, T -0.51, Y -1.76, K -1.64, H -1.65, V -1.52
P173: L -0.21, W -1.02, A -0.38, K -0.93, H 0.19, V 0.67, D -0.84, F -0.34, C -0.22, S 0.5, Y -0.68, N -0.77, G -0.17, T -0.17, Q 0.62, M 0, I -0.68, R -0.47, E 0
I178: A -1.66, K -0.57, G -0.44, E -2.31, S -1.13, M -0.88, L 0.3, T -0.41, Y -1.19, H -0.39, V 0.68, Q -0.75, F -0.92, P 0.29, N -0.4, C -0.6, W -1.15, D -0.82, R -0.26
H187: C 0.07, T -1.03, K -0.37, Y -0.18, I -0.51, S -0.12, F -0.63, A -0.81, W 0.48, D 0.45, L -1.47, M -0.22, N -0.57, V 0.03, Q -0.38, R -0.76, P -1.29, E 0.18, G -1.69
T182: Y -2.23, K -0.75, E -1.6, N -1.25, L -1.43, Q -1.49, D -2.4, P -1.25, F -2.63, R -1.25, G -1.06, V -1.47, M -1.87, A -1.25, W -1.65, I -1, H -1.44, S -1.55, C -2.09
